US20150218244A1 (Hoffmann-La Roche, published 2015)
Changes are numbered by the printed parent chain. Names and notes keep the numbering of the source.

B1: IL-10 (I87A)-his mutant cytokine (ligand)
chain: SPGQGTQSENSCTHFPGNLPNMLRDLRDAFSRVKTFFQMKDQLDNLLLKESLLEDFKGYLGCQALSEMIQFYLEEVMPQAENQDPDAKAHVNSLGENLKTLRLRLRRCHRFLPCENKSKAVEQVKNAFNKLQEKGIYKAMSEFDIFINYIEAYMTMKIRNVDHHHHHH
notes: The entry already carries I87A; Purified as the dimeric cytokine; also called hu IL-10 (I87A)
B2: IL-10 (R24A)-his mutant cytokine (ligand)
chain: B1 chain with R24A, A87I
notes: The entry already carries R24A; Purified as the dimeric cytokine; also called hu IL-10 (R24A)

Columns and labels:
[1] = target: T1, human IL-10R1 fused to an IgG Fc region, biotinylated (human, biotinylated (site not stated)); assay: SPR (ProteOn XPR36, 25 C), about 770 RU biotinylated IL-10R1-Fc on NLC chip, his-tagged cytokine as analyte
T1 construct: also called hu IL-10R1; IL-10R1-Fc
T1 sequence (chain, as listed by the source limits assumed): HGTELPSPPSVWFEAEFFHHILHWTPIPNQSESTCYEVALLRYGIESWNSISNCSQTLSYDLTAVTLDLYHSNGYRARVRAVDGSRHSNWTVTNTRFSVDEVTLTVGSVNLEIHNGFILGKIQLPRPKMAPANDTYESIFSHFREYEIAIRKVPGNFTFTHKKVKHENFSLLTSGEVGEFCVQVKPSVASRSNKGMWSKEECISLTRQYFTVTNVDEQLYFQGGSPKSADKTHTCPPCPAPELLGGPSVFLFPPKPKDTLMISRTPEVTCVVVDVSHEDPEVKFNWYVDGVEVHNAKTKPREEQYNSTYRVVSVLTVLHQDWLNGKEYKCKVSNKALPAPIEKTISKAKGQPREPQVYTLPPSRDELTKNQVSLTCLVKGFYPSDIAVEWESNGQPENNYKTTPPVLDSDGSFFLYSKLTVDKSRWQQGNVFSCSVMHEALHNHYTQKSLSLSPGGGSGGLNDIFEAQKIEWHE
Method: (§1) The SPR assay set-up is depicted in FIG. 15. About 770 RU of the biotinylated human IL-10R1 fused to an IgG Fc region (see SEQ ID NO: 87) were captured on the neutravidin-derivatized chip matrix of an NLC chip along vertical channels at a concentration of 30 μg/ml and a flow rate of 30 μl/min for a contact time or 240 s. Binding to huIL10R1 was measured at 5 different analyte concentrations (50, 10, 2, 0.4, 0.08 nM) by injections in horizontal orientation at 50 μl/min, recording the association rate for 180 s, the dissociation rate for 600 s. Running buffer (PBST) was injected along the sixth channel to provide an “in-line” blank for referencing. Association rates (kₒₙ) and dissociation rates (koff) were calculated using a simple 1:1 Langmuir binding model (ProteOn Manager software version 2.1) by simultaneously fitting the association and dissociation sensorgrams. The equilibrium dissociation constant (KD) was calculated as the ratio koff/kₒₙ. As human IL-10R1 could not be regenerated without a loss of activity, the subsequent steps of ligand capture and analyte injection were performed channel per channel using a freshly immobilized sensorchip surface for every interaction.
A decreased affinity to the IL-10R1 may represent a distinct advantage when targeting IL-10 to inflamed tissues through fusion with an antibody.

[2] = target: T1, human IL-10R1 fused to an IgG Fc …; assay: SPR, against IL-10 wild type
Method: as §1
A decreased affinity to the IL-10R1 may represent a distinct advantage when targeting IL-10 to inflamed tissues through fusion with an antibody. […]

| Binder | Kd [1] | koff [1] | kon [1] | fold reduction of affinity compared to IL-10 wild type [2] |
| --- | --- | --- | --- | --- |
| B1 | 0.476 nM | 0.000219 s⁻¹ | 461000 M⁻¹ s⁻¹ | 10 fold |
| B2 | 0.0807 nM | 0.000184 s⁻¹ | 2.28e+06 M⁻¹ s⁻¹ | 2 fold |
